T1: FcγRIIa R (human, UniProt P12318 34-217)
T1 construct: extracellular domain; also called FcgRIIa R type; 2aR
T1 sequence (looked up): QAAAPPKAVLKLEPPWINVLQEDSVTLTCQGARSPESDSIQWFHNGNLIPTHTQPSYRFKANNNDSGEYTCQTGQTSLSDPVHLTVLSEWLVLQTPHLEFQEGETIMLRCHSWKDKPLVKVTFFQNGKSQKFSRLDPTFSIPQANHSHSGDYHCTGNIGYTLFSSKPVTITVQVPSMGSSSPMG

T2: FcγRIIb extracellular domain with C-terminal His tag (human, UniProt P31994 43-217)
T2 construct: extracellular domain; also called FcgRIIb; 2b
T2 sequence (looked up): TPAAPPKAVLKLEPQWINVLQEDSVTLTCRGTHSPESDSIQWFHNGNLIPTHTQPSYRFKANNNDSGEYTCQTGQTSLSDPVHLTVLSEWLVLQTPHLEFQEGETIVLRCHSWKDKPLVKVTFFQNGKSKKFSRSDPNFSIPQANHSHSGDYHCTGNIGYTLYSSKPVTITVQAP

B1: GpH7-A5/GpH7-B3 variant P238_16H/GpL16-k0 (antibody, human IgG1, kappa)
heavy 1: not shown
heavy 2: not shown
light: DIVMTQSPLSLPVTPGEPASISCQASESLVHSNRNTYLHWYLQKPGQSPQLLIYKVSNRFSGVPDRFSGSGSGTDFTLKISRVEAEDVGVYYCSQNTHVPPTFGQGTKVEIERTVAAPSVFIFPPSDEQLKSGTASVVCLLNNFYPREAKVQWKVDNALQSGNSQESVTEQDSKDSTYSLSSTLTLSKADYEKHKVYACEVTHQGLSSPVTKSFNRGEC
notes: also called He Ab P238_16H
B2: GpH7-B3 variant L235_15Y/GpL16-k0 (antibody, human IgG1, kappa)
heavy: not shown
light: B1 light
notes: also called Ho Ab L235_15Y
B3: GpH7-B3 variant L234_20W/GpL16-k0 (antibody, human IgG1, kappa)
heavy: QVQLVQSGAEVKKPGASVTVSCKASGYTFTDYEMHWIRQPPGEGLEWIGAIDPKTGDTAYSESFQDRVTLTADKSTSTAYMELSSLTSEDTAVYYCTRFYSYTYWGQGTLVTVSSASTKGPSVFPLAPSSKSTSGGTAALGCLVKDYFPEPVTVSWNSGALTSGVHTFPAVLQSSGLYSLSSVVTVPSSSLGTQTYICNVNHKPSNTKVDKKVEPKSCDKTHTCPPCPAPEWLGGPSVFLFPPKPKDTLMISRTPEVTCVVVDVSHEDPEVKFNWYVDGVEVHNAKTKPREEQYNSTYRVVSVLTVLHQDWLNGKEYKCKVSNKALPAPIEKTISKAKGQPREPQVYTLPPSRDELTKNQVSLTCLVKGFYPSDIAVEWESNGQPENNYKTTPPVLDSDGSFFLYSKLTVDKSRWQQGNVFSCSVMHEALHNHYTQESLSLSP
light: B1 light
notes: also called Ho Ab L234_20W
B4: GpH7-B3 variant L234_09D/GpL16-k0 (antibody, human IgG1, kappa)
heavy: not shown
light: B1 light
notes: also called Ho Ab L234_09D
B5: GpH7-A5/GpH7-B3 variant P331_04F/GpL16-k0 (antibody, human IgG1, kappa)
heavy 1: not shown
heavy 2: not shown
light: B1 light
notes: also called He Ab P331_04F
B6: GpH7-B3 variant K326_07I/GpL16-k0 (antibody, human IgG1, kappa)
heavy: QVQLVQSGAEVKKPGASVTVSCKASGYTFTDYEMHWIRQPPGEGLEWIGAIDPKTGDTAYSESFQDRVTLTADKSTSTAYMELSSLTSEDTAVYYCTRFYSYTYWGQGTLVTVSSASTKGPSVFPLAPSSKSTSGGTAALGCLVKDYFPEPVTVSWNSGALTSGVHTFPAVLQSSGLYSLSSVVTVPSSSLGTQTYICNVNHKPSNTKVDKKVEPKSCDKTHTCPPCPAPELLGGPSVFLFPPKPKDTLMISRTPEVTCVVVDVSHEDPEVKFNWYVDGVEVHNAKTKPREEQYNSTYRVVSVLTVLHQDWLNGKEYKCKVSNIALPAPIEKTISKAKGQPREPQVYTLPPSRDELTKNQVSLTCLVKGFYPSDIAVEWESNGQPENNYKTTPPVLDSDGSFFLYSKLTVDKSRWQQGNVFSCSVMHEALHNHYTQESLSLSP
light: B1 light
notes: also called Ho Ab K326_07I
B7: GpH7-B3 variant A330_01G/GpL16-k0 (antibody, human IgG1, kappa)
heavy: not shown
light: B1 light
notes: also called Ho Ab A330_01G
B8: GpH7-B3 variant G237_20W/GpL16-k0 (antibody, human IgG1, kappa)
heavy: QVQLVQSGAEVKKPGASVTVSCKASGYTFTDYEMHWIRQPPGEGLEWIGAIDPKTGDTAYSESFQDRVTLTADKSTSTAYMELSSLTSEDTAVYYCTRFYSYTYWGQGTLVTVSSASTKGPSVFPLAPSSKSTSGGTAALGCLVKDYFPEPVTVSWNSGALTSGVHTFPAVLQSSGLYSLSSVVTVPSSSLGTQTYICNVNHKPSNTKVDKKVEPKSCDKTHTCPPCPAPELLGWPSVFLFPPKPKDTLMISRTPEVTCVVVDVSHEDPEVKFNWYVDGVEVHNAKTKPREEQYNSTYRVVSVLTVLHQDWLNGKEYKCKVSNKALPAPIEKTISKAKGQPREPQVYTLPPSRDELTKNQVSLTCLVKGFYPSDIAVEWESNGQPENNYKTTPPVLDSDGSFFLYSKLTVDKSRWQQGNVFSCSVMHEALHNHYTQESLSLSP
light: B1 light
notes: also called Ho Ab G237_20W
B9: GpH7-B3 variant L235_09D/GpL16-k0 (antibody, human IgG1, kappa)
heavy: not shown
light: B1 light
notes: also called Ho Ab L235_09D
B10: GpH7-B3 variant G237_13S/GpL16-k0 (antibody, human IgG1, kappa)
heavy: not shown
light: B1 light
notes: also called Ho Ab G237_13S
B11: GpH7-B3 variant G237_04F/GpL16-k0 (antibody, human IgG1, kappa)
heavy: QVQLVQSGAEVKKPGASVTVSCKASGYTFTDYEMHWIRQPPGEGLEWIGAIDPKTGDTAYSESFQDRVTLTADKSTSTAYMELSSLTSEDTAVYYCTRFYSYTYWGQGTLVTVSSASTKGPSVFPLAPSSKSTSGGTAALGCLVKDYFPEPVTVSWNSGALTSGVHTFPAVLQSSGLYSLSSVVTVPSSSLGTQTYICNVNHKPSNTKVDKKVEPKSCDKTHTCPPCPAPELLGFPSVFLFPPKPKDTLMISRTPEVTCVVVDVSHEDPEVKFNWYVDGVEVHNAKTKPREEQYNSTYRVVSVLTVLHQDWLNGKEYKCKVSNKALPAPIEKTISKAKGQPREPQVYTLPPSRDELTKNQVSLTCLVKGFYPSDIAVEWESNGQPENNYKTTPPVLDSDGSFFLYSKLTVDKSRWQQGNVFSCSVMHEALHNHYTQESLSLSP
light: B1 light
notes: also called Ho Ab G237_04F
B12: GpH7-B3 variant G237_08L/GpL16-k0 (antibody, human IgG1, kappa)
heavy: not shown
light: B1 light
notes: also called Ho Ab G237_08L
B13: GpH7-B3 variant L235_20W/GpL16-k0 (antibody, human IgG1, kappa)
heavy: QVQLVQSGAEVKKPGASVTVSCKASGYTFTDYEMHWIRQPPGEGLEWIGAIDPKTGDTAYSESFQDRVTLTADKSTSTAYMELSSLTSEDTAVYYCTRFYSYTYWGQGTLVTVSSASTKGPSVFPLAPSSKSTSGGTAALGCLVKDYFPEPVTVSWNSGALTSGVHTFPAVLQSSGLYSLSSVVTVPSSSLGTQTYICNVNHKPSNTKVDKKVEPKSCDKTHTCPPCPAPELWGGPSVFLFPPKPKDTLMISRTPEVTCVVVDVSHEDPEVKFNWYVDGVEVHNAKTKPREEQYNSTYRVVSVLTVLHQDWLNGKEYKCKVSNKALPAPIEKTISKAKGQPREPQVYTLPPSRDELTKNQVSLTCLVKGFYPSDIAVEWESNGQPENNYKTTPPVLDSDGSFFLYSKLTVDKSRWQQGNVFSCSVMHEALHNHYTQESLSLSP
light: B1 light
notes: also called Ho Ab L235_20W
B14: GpH7-B3 variant G237_10E/GpL16-k0 (antibody, human IgG1, kappa)
heavy: not shown
light: B1 light
notes: also called Ho Ab G237_10E
B15: GpH7-B3 variant L234_10E/GpL16-k0 (antibody, human IgG1, kappa)
heavy: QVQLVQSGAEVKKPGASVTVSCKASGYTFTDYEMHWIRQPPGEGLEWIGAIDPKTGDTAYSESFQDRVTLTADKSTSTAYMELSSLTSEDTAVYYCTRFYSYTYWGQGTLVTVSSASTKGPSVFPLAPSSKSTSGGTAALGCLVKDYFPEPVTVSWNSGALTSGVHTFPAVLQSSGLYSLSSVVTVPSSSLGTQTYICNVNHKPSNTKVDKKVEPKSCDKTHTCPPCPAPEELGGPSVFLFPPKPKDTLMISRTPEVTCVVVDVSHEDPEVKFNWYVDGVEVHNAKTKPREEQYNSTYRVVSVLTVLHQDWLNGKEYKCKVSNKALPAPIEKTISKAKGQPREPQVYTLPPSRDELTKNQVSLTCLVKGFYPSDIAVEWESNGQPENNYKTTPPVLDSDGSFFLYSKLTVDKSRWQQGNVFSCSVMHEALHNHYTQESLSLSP
light: B1 light
notes: also called Ho Ab L234_10E
B16: GpH7-B3 variant I332_02A/GpL16-k0 (antibody, human IgG1, kappa)
heavy: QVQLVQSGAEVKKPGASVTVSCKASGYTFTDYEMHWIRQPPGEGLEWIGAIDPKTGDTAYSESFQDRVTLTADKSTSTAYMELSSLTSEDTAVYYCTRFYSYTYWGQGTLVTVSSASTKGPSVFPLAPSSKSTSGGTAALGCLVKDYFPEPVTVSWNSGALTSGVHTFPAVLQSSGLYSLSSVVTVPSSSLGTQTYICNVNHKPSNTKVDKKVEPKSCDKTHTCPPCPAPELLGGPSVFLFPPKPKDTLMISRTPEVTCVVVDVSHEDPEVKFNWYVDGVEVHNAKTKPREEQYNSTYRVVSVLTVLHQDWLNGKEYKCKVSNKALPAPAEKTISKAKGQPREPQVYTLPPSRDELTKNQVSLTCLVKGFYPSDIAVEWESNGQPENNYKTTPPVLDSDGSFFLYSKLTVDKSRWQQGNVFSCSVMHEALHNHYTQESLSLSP
light: B1 light
notes: also called Ho Ab I332_02A
B17: GpH7-B3 variant G237_06M/GpL16-k0 (antibody, human IgG1, kappa)
heavy: not shown
light: B1 light
notes: also called Ho Ab G237_06M
B18: GpH7-B3 variant L328_10E/GpL16-k0 (antibody, human IgG1, kappa)
heavy: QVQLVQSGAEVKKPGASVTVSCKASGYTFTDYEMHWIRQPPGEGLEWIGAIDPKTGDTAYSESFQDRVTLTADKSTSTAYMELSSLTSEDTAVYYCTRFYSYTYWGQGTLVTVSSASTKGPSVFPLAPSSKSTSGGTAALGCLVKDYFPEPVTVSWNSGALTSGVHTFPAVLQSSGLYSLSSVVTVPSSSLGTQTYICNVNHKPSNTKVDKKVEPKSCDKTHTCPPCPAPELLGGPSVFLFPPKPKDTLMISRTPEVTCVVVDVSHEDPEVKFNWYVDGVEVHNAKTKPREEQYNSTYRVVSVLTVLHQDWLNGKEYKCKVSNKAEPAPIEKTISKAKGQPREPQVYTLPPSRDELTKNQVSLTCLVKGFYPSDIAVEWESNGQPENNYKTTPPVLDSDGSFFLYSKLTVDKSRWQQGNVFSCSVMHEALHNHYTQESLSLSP
light: B1 light
notes: also called Ho Ab L328_10E
B19: GpH7-A5/GpH7-B3 variant N325_15Y/GpL16-k0 (antibody, human IgG1, kappa)
heavy 1: not shown
heavy 2: not shown
light: B1 light
notes: also called He Ab N325_15Y
B20: GpH7-A5/GpH7-B3 variant P238_19Q/GpL16-k0 (antibody, human IgG1, kappa)
heavy 1: not shown
heavy 2: not shown
light: B1 light
notes: also called He Ab P238_19Q
B21: GpH7-B3 variant A330_05P/GpL16-k0 (antibody, human IgG1, kappa)
heavy: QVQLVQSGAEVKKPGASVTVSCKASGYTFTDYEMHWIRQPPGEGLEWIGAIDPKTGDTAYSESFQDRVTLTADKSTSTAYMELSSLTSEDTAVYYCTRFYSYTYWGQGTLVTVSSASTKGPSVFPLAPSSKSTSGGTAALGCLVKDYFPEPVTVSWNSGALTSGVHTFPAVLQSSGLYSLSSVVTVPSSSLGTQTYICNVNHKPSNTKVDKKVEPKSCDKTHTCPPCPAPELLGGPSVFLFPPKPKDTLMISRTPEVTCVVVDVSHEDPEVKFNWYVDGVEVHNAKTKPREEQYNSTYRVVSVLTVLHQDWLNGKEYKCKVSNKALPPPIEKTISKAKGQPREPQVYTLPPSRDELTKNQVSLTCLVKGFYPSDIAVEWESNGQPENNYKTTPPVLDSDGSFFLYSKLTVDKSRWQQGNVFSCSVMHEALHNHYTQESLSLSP
light: B1 light
notes: also called Ho Ab A330_05P
B22: GpH7-B3 variant I336_08L/GpL16-k0 (antibody, human IgG1, kappa)
heavy: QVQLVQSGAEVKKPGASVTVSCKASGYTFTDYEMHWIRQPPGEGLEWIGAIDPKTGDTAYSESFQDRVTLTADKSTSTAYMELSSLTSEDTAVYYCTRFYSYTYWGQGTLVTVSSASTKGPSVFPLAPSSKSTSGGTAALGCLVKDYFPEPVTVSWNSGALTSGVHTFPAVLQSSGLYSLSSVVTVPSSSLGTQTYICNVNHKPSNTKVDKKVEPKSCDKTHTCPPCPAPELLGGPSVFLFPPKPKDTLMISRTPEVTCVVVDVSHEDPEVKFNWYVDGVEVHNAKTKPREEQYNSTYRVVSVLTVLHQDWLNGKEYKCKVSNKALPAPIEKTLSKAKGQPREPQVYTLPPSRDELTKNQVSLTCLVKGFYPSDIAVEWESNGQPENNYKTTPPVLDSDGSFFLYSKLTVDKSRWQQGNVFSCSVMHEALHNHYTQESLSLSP
light: B1 light
notes: also called Ho Ab I336_08L
B23: GpH7-B3 variant G237_09D/GpL16-k0 (antibody, human IgG1, kappa)
heavy: not shown
light: B1 light
notes: also called Ho Ab G237_09D
B24: GpH7-A5/GpH7-B3 variant P238_04F/GpL16-k0 (antibody, human IgG1, kappa)
heavy 1: not shown
heavy 2: not shown
light: B1 light
notes: also called He Ab P238_04F
B25: GpH7-B3 variant G237_15Y/GpL16-k0 (antibody, human IgG1, kappa)
heavy: not shown
light: B1 light
notes: also called Ho Ab G237_15Y
B26: GpH7-B3 variant H268_15Y/GpL16-k0 (antibody, human IgG1, kappa)
heavy: not shown
light: B1 light
notes: also called Ho Ab H268_15Y
B27: GpH7-B3 variant A327_18N/GpL16-k0 (antibody, human IgG1, kappa)
heavy: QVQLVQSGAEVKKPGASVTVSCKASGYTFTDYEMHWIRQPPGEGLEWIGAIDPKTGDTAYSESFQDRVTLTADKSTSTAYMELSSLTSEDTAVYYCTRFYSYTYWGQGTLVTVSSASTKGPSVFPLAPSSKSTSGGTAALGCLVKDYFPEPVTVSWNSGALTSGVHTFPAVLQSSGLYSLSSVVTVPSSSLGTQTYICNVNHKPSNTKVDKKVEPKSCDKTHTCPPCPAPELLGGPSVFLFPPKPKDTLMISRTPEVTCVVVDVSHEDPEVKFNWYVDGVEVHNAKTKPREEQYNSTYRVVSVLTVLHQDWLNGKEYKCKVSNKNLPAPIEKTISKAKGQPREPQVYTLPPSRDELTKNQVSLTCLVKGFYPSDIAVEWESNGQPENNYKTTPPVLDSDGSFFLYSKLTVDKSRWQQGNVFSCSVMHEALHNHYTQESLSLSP
light: B1 light
notes: also called Ho Ab A327_18N

How the values were obtained:
FcγRIIa R = target: T1, FcγRIIa R; assay: SPR (Biacore), captured antibody, FcγR as analyte; relative binding activity
[1] = target: T2, FcγRIIb extracellular domain with …; assay: SPR (Biacore), relative binding
Method: Analysis of interaction between objective antibody and the FcγR was carried out using Biacore T100 (GE Healthcare). HBS-EP+ (GE Healthcare) was used as the running buffer, and the measurement temperature was set to 25° C. Chips produced by immobilizing the antigen peptide by the amine coupling method to a Series S Sencor Chip CM5 (GE Healthcare), or alternatively, chips produced by allowing preliminarily biotinylated antigen peptides to interact with and immobilize onto a Series S Sensor Chip SA (certified) (GE Healthcare) were used. Antibodies of interest were captured onto an antigen peptide-immobilized chip, and allowed to interact to each FcγR diluted with running buffer. To regenerate and repeatedly use the chip, the antibodies captured on the chip were washed off by reacting 10 mM glycine-HCl, pH 1.5.

Binder | He/Con_2aR (FcγRIIa R) | Ho/Con_2b [1]
B1 | 122 % (GpH7-A5/GpH7-B3/GpL16-k0 = 100) | –
B2 | – | 127 % of HoCon Ab GpH7-B3/GpL16-k0
B3 | – | 80.6 % of HoCon Ab GpH7-B3/GpL16-k0
B4 | – | 68.5 % of HoCon Ab GpH7-B3/GpL16-k0
B5 | 111 % (GpH7-A5/GpH7-B3/GpL16-k0 = 100) | –
B6 | – | 170 % of HoCon Ab GpH7-B3/GpL16-k0
B7 | – | 102 % of HoCon Ab GpH7-B3/GpL16-k0
B8 | – | 166 % of HoCon Ab GpH7-B3/GpL16-k0
B9 | – | 78.7 % of HoCon Ab GpH7-B3/GpL16-k0
B10 | – | 25.7 % of HoCon Ab GpH7-B3/GpL16-k0
B11 | – | 140 % of HoCon Ab GpH7-B3/GpL16-k0
B12 | – | 49.4 % of HoCon Ab GpH7-B3/GpL16-k0
B13 | – | 116 % of HoCon Ab GpH7-B3/GpL16-k0
B14 | – | 17.8 % of HoCon Ab GpH7-B3/GpL16-k0
B15 | – | 54.9 % of HoCon Ab GpH7-B3/GpL16-k0
B16 | – | 81.8 % of HoCon Ab GpH7-B3/GpL16-k0
B17 | – | 35.3 % of HoCon Ab GpH7-B3/GpL16-k0
B18 | – | 146 % of HoCon Ab GpH7-B3/GpL16-k0
B19 | 101 % (GpH7-A5/GpH7-B3/GpL16-k0 = 100) | –
B20 | 104 % (GpH7-A5/GpH7-B3/GpL16-k0 = 100) | –
B21 | – | 35.3 % of HoCon Ab GpH7-B3/GpL16-k0
B22 | – | 103 % of HoCon Ab GpH7-B3/GpL16-k0
B23 | – | 92.9 % of HoCon Ab GpH7-B3/GpL16-k0
B24 | 174 % (GpH7-A5/GpH7-B3/GpL16-k0 = 100) | –
B25 | – | 83.1 % of HoCon Ab GpH7-B3/GpL16-k0
B26 | – | 104 % of HoCon Ab GpH7-B3/GpL16-k0
B27 | – | 101 % of HoCon Ab GpH7-B3/GpL16-k0
